In PMC5942852:

Columns and labels:
[1] = target: H2-6 position 59 mutant (Y->F) (human); experiment: SPR; ProteOn XPR36 (Bio-Rad), GLC chip; IgG captured on amine-coupled anti-human capture antibody (Human Antibody Capture Kit), antigen as analyte; 1x HBS-EP+ pH 7.4 with BSA 1 mg/ml; equilibrium or kinetic Langmuir model
[2] = target: H2-6 position 67 mutant (Y->E) (human); experiment: as above
[3] = target: CH103 (human); experiment: as above
[4] = target: CH103 WT with the H2-6 residue at position 67 (E->Y) (human); experiment: as above
CH103 WT with the H2-6 residue at position 67 (E->Y) (human), sequence (heavy, as listed by the source, chain 1 of 2): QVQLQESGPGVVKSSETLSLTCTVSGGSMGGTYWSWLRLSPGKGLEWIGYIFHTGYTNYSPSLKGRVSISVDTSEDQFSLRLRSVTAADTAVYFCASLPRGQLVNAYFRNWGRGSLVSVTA
CH103 WT with the H2-6 residue at position 67 (E->Y) (human), sequence (light, as listed by the source, chain 2 of 2): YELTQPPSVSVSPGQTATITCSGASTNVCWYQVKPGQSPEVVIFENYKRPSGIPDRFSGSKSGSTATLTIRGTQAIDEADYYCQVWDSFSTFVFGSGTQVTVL

[5] = target: CH103 (human); experiment: SPR; Biacore 4000, CM5 chip; IgG captured on amine-coupled anti-human capture antibody (Human Antibody Capture Kit), antigen as analyte; 1x HBS-EP+ pH 7.4 with BSA 1 mg/ml; equilibrium or kinetic Langmuir model; apparent KD

CH103 (human), sequence (heavy, as listed by the source, chain 1 of 2): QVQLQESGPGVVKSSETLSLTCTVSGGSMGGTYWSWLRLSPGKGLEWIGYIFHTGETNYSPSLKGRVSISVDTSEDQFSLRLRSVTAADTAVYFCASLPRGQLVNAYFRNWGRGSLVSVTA
CH103 (human), sequence (light, as listed by the source, chain 2 of 2): as the sequence (light, as listed by the source, chain 2 of 2) above
H2-6 position 59 mutant (Y->F) (human), sequence (heavy, as listed by the source, chain 1 of 2): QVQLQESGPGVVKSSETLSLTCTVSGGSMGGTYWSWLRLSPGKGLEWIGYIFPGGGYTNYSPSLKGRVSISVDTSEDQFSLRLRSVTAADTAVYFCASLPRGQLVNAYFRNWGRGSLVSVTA
H2-6 position 59 mutant (Y->F) (human), sequence (light, as listed by the source, chain 2 of 2): as the sequence (light, as listed by the source, chain 2 of 2) above
H2-6 position 67 mutant (Y->E) (human), sequence (heavy, as listed by the source, chain 1 of 2): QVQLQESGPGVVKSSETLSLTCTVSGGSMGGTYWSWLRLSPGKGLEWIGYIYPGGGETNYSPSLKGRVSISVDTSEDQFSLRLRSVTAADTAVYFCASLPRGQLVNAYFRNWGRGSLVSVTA
H2-6 position 67 mutant (Y->E) (human), sequence (light, as listed by the source, chain 2 of 2): as the sequence (light, as listed by the source, chain 2 of 2) above

| Substance | Kd [1] | Kd [2] | Kd [3] | Kd [4] | Kd [5] |
| --- | --- | --- | --- | --- | --- |
| gp120 Core Bal (domain or fragment) | 12.8 nM | 212 nM | 1100 nM | 11.7 nM | 91 nM |
| gp120 Core HXB2 (domain or fragment) | 2.2 nM | 30.9 nM | 138 nM | 2.3 nM | 52 nM |
